T1: VEGF-165 (VEGF-A) (Homo sapiens)
T1 chain: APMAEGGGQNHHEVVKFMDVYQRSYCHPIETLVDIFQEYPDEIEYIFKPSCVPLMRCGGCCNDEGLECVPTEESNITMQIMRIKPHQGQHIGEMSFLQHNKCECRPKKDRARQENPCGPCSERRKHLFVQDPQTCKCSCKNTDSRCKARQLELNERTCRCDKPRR

B1: AMSB107.P40K (ssRNA)
RNA: UGCAUGCAUUUUACCAGUGAGUCGGAUCUCCGCAUAGAUAAGCCAACAAACGUACAUUCUCUGUUAGUAUUUUCUGCG
modifications: 2'-F all nucleotides; 5' 40 kDa PEG (SEQ 203 as printed in the description)
B2: AMSB107.20 (ssRNA)
RNA: UGCAUGCAUUUUACCAGUGAGUCGGAUCUCCGCAUAGAUAAGCCAACAAACGUACAUUCUCUGUUAGUAUUUUCUGCG
modifications: 2'-F with LNA (L) in stems as printed
B3: AMSB107 (ssRNA)
RNA: UGCAUGCAUUUUACCAGUGAGUCGGAUCUCCGCAUAGAUAAGCCAACAAACGUACAUUCUCUGUUAGUAUUUUCUGCG
modifications: 2'-F all
B4: AMSB107.12 (ssRNA)
RNA: CUGUACAGUUUUACCAGUGAGUCGGAUCUCCGCAUAGAUAAGCCAACAAACGUACAUUCUCUGUUAGUAUUUUCUGCG
modifications: 2'-F all
B5: AMSB107.18 (ssRNA)
RNA: UGCAUGCAUUUUACCAGUGAGUCGGAUCUCCGCAUAGAUAAGCCAACAAACGUACAUUCUCUGUUAGUAUUUUCUGCG
modifications: 2'-F with LNA (L) at positions as printed
B6: AMSB107.21 (ssRNA)
RNA: UGCAUGCAUUUUACCAGUGAGUCGGAUCUCCGCAUAGAUAAGCCAACAAACGUACAUUCUCUGUUAGUAUUUUCUGCG
modifications: 2'-F with 2'-OMe in stems as printed
B7: AMSB107.10 (ssRNA)
RNA: UGCAUGCAUUUUUUACCAGUGAGUCGGAUCUCCGCAUAGAUAAGCCAACAAACGUACAUUCUCUGUUAGUAUUUUCUGCG
modifications: 2'-F all
B8: AMSB107.17 (ssRNA)
RNA: GCUGUACAGCUUUUACCAGUGAGUCGGAUCUCCGCAUAGAUAAGCCAACAAACGUACAUUCUCUGUUAGUAUUUUCUGCG
modifications: 2'-F all
B9: AMSB107.13 (ssRNA)
RNA: CCGGUACCGGUUUUACCAGUGAGUCGGAUCUCCGCAUAGAUAAGCCAACAAACGUACAUUCUCUGUUAGUAUUUUCUGCG
modifications: 2'-F all
B10: AMSB107.15 (ssRNA)
RNA: UGCAUCUGCAUUUUACCAGUGAGUCGGAUCUCCGCAUAGAUAAGCCAACAAACGUACAUUCUCUGUUAGUAUUUUCUGCG
modifications: 2'-F all
B11: AMSB107.11 (ssRNA)
RNA: UGCAUGCAUUUUCCAGUGAGUCGGAUCUCCGCAUAGAUAAGCCAACAAACGUACAUUCUCUGUUAGUAUUUUCUGCG
modifications: 2'-F all
B12: AMS0433.m6 (ssRNA)
RNA: UGCAUGCAUUUUACCAGUGAGUCGGAUCUCCGCAUAUCUGCG
modifications: mixed 2'-F and 2'-OMe: mUmGmCmAmUmGmCmAmUmUmUmUmAmCfCfAfGfUfGfAfGfUmCfGfGfAmUfCfUfCfCfGfCfAfUfAfUfCfUfGfCfG
B13: AMS0433.m4 (ssRNA)
RNA: UGCAUGCAUUUUACCAGUGAGUCGGAUCUCCGCAUAUCUGCG
modifications: mixed 2'-F and 2'-OMe: fUfGfCfAfUfGfCfAmUmUmUmUmAmCfCfAfGfUfGfAfGfUmCfGfGfAmUfCfUfCmCmGmCmAmUmAmUmCmUmGmCmG
B14: AMSB107.14 (ssRNA)
RNA: UGCACUGCAUUUUACCAGUGAGUCGGAUCUCCGCAUAGAUAAGCCAACAAACGUACAUUCUCUGUUAGUAUUUUCUGCG
modifications: 2'-F all

Legend:
[1] = target: T1, VEGF-165 (VEGF-A); test: competition; VEGF receptor competition; conditions: tags: recombinant; chain copies: 2
[2] = target: T2, Angiopoietin-2 (Ang2) (Homo sapiens, UniProt O15123 O15123:19-496); test: competition; Ang2/Tie2 competition (column printed Tier2); conditions: tags: His tag; R&D Systems 623-AN
[3] = target: T1, VEGF-165 (VEGF-A); test: competition; VEGF/VEGFR2 inhibition; conditions: tags: R&D Systems 293-VE-050; chain copies: 2
[4] = target: T2, Angiopoietin-2 (Ang2); test: competition; Ang2/Tie2 inhibition; conditions: tags: His tag; R&D Systems 623-AN
[5] = target: T1, VEGF-165 (VEGF-A); test: flow; PBSMCT, 37 C; conditions: tags: recombinant; chain copies: 2; label: biotin
[6] = target: T3, VEGF-121 (VEGF-A) (Homo sapiens, UniProt P15692 SEQ:1-121); test: flow; bead-bound aptamer; PBSMCT 2.5 mM MgCl2 1 mM CaCl2, 37 C; conditions: tags: recombinant; chain copies: 2; label: biotin
[7] = target: T3, VEGF-121 (VEGF-A); test: flow; PBSMCT, 37 C; conditions: tags: recombinant; chain copies: 2; label: biotin
[8] = target: T1, VEGF-165 (VEGF-A); test: competition; VEGFR2 competition ELISA, 50 pM VEGF-165, 37 C; conditions: tags: recombinant, chain copies: 2

T2 sequence (O15123 19-496, one chain of several): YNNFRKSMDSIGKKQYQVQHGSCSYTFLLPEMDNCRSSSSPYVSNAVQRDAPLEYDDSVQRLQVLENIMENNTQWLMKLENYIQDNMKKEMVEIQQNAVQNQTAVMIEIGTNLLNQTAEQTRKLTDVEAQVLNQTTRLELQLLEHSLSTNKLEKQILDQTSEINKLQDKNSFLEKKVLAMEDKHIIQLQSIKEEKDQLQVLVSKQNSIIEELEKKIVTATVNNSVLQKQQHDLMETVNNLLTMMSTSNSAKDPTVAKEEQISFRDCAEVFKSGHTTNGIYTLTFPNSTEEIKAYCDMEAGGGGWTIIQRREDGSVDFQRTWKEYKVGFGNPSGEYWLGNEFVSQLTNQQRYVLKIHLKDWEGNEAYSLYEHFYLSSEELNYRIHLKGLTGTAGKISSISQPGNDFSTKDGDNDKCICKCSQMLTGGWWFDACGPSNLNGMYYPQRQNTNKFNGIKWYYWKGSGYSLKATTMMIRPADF

Binder | IC50 [3] | other results
B1 |  | IC50 [1]: 0.036 nM; IC50 [2]: 0.045 nM
B2 | 0.068 nM | 
B3 | 0.073 nM | IC50 [4]: ~0.1 nM
B4 | 1.03 nM | 
B5 | 0.422 nM | 
B6 | 0.063 nM | 
ACCCUUGCUUGCGUAGCAUUUUACCAGUGAGUCGGAUCUC (ssRNA, 2'-F all nucleotides) [AMS0433.0] |  | Kd [5]: 11.1 nM; Kd [6]: 15.2 nM
B7 | 0.17 nM | 
B8 | 0.083 nM | 
B9 | 1 nM | 
B10 | 15.6 nM | 
B11 | 0.114 nM | 
UGCAUGCAUUUUACCAGUGAGUCGGAUCUCCGCAUAUCUGCG (ssRNA, 2'-F all nucleotides) [AMS0433] |  | Kd [7]: 0.052 nM; Kd [5]: 0.041 nM; IC50 ([8]; label: biotin): 0.037 nM
B12 |  | IC50 [8]: 0.041 nM
B13 |  | IC50 [8]: 0.04 nM
B14 | 3.27 nM | 

From US20230095004 (Aptitude Medical Systems, Inc., published 2023)
